Results: the DeepSol protein solubility set

Experiment: soluble on expression in E. coli; label from the status in PepcDB or PDB records
For “MAIADEFRQLQTRLLECWEGTETFIPELPRGPGGIERDILVVPSLSFPQPELGKITGYTHYEERQLYTLIQLRNPRTRMIYVTSQPLHPSIVDYYLDLLPGVPSCHARDRLLLLATYDRSDKPLTAKILERPRLLERIRQALRPNQAYMVCFNSTPLERELAVRLGVPLYSTDPDLLYWGTKAGSRELFAAAGIRHPIGSGFLQGVPELVRAIAHLQEKCPELQQLVVKLNEAFSGEGNALLDLRPLRPLGSPHTPDHLQRIENSLEDMVFQAPNETWASYRQRFTDLGGIVEAFVEGTVKRSPSVQGCITPKGSVEIVSTHEQLLNAPTGQIFIGCEFPAHADYRQQLQELGQKVGTYLAQQGVIGCFSVDVVATQTTEGWELYAIEINLRKGGTTHPFMTLKFLTDGHYELASGRFYSKHRRPKYYIASDNLCQPHYRGLLPNDLLDMIARYHLHFDSSTETGTVFHLMGALSEFGKLGLVSIGNTPEEAQAIYNQTIGVLDAAALLEHHHHHH”, the “soluble on expression in E. coli” value was “not soluble”. In the case of “MAIDPAAAYASAIRTPGLLPNAKLVVDHFHVTTLANDALTAVRRRVTWAFHDRRGRKIDPQWANRRRLLTARERLSDKSFAKMRNRINAVDPRAQILSAWIAKEELRTLLSTVRTGGDPHLARHHLHRFLPGASTRRSPNCSPWPPPLTSHPRSTPSWSPASPTRASVVGEVAEMLGDIDGQCVQVEVPVPERGPAGCGGLDGLGRAGVSATPRVCAAMTAVNVAGRCAGQQADVGPTPQHRCRGR”, the “soluble on expression in E. coli” value is reported as “soluble”. For “MAIQFELYKSPARKDEEDKELYHARVVNFQHIDTDYLAKEIQQATSLTEGDVKAVLESLSHFMGSRLREGERVHLDGIGYFQVKLNSLEPITSPKLKANQMKLKANIGFKADKKLRSSVSVVKVERSKLKLHSVPRSNEEIDRLLTAYFSNNQILTRSDFQGLCKLTLTTAARHIKRLKEEKKLQNINTRQSPVYVPMPGYYGKPEVEDTVK”, the “soluble on expression in E. coli” value was “not soluble”. In the case of “MAISDSYLKSCLGRERDKVEEKADRDGLWVRISKKGAVTFFYRFRFLGKQDKMTIGSYPEFGLKAAREEVTKWAAILARGENPRIRQSLDKAKINSQYTFEELFREWHAMVCVQKETSDQILRSFELHVFPKLGKYPAHQLTLHNWLTVLDRLAQGYTEITRRVISNGRQCYSWAVKRQLLEVNPLSEMSGRDFGIQKKMGERTLDRKEIAIVWRAIEDSRLIERNKILYKLSLIWACRVGELRQAEVSHFDFEEGVWTVPWENHKTGRKSKKPIIRPIIPEMLPLIQRAIELAPGRFVFSKYADKPMSEGFHMSISSNLVKFMLKAYNEQVPHFTIHDLRRTARTNFSELTEPHIAEMMLGHKLPGVWSVYDKYTYIEEMREAYSKWWARLMSIIEPDVLEFTPRQTG”, the “soluble on expression in E. coli” value is reported as “not soluble”. In the case of “MAISIKGVNTGVIRKSNNFIALALKIKEPRNKESLFFMSVMELRDLLIALESRLHQKHKLDAAAHLQYEQARDKVIKKMAENIPEILVDELKNADINRRVNTLELTDNQGENLTFVLTLHDGSKCELVVNELQIEMLARAIIHAINNAEMRELALRITSLLDFLPLYDVDCQDNGNLEYDTYSQPEWKHNLFDHYLAVLYRFKDESGKEQFSGAVVKTREATPGKEIEAITRRMLDFSPRLKKLAGVPCQVYVRTVAANNAQPLTQDQCLRALHHLRVQSTSKTAPQAK”, the “soluble on expression in E. coli” value is reported as “not soluble”. In the case of “MAKAGREGPRDSVWLSGEGRRGGRRGGQPSGLDRDRITGVTVRLLDTEGLTGFSMRRLAAELNVTAMSVYWYVDTKDQLLELALDAVFGELRHPDPDAGLDWREELRALARENRALLVRHPWSSRLVGTYLNIGPHSLAFSRAVQNVVRRSGLPAHRLTGAISAVFQFVYGYGTIEGRFLARVADTGLSPEEYFQDSMTAVTEVPDTAGVIEDAQDIMAARGGDTVAEMLDRDFEFALDLLVAGIDAMVEQA”, the “soluble on expression in E. coli” value is reported as “soluble”. With “MAKDIRVLLYYLYTPIENAEQFAADHLAFCKSIGLKGRILVADEGINGTVSGDYETTQKYMDYVHSLPGMEELWFKIDEENEQAFKKMFVRYKKEIVHLGLEDNDFDNDINPLETTGAYLSPKEFKEALLDKDTVVLDTRNDYEYDLGHFRGAIRPDIRNFRELPQWVRDNKEKFMDKRVVVYCTGGVRCEKFSGWMVREGYKDVGQLHGGIATYGKDPEVQGELWDGKMYVFDERIAVDVNHVNPTIVGKDWFDGTPCERYVNCGNPFCNRRILTSEENEDKYLRGCSHECRVHPRNRYVSKNELTQAEVIERLAAIGESLDQAATVLEHHHHHH” the “soluble on expression in E. coli” value was “soluble”. With “MAKGQNAPIRRRTLTRDKVVDAAIEIIDEHGWEQLSMTSLSARLNVVTASLYNHVRNLDDIRGAVQVRTMTELGAHLREIAMGRTGPDGLRALVDAHRAWATQHPHRYQTLTTSPVDRDAFISAALDANTALRTMLASCGLPPEDTLDAAVSIFAAMHGFVMLVNTDFLGDELDLDSIYESVLRGALSSVGWPERTHTPS” the “soluble on expression in E. coli” value was “not soluble”.
